Data reported in paper PMC3995651.
Values belong to the substance of their own block, whether it stands above or below them.

Tests used:
Assay in all cases: cross-linking; BS3 (0.5 or 5 mM), 5 µM protein in solution without liposomes, 20 mM Hepes, 150 mM NaCl, pH 7.4; 30 min room temperature, then 2 min 37°C with BS3; SDS-PAGE, Coomassie; step: monomers to dimer
[1] = molecular target: BIN1 N-BAR domain (1-254) D151N (human)
[2] = molecular target: BIN1 N-BAR domain (1-254), wild type (human)
[3] = molecular target: BIN1 N-BAR domain (1-254) R154Q (human)
[4] = molecular target: BIN1 N-BAR domain (1-254) K35N (human)

stoichiometry N [1]: 2
Substance: BIN1 N-BAR domain (1-254) D151N (domain or fragment)

stoichiometry N [2]: 2
Substance: BIN1 N-BAR domain (1-254), wild type (domain or fragment)

stoichiometry N [3]: 2
Substance: BIN1 N-BAR domain (1-254) R154Q (domain or fragment)

stoichiometry N [4]: 2
Substance: BIN1 N-BAR domain (1-254) K35N (domain or fragment)
